Laboratory results reported in patent US20140112915A1 (Novartis, published 2014).
Residue numbers refer to the chain shown, from its start.

T1: Recombinant human IL-18 (human, UniProt Q14116 37-193)
T1 sequence: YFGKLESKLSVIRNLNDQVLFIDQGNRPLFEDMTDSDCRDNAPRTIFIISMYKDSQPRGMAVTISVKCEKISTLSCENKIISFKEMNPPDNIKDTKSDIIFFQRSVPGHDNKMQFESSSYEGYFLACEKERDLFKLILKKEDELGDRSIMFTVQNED

T2: Recombinant cynomolgus IL-18 (cynomolgus monkey, UniProt Q14116 37-193 (human entry))
T2 chain: T1 sequence with V11I, S50N, T63A, K79R, F134Y, E141K

T3: Native human IL-18 (human, UniProt Q14116 37-193)
T3 sequence: T1 sequence

T4: IL-18/IL-18BP complex (human, UniProt O95998 31-194, biotinylated in the first ELISA setup, unbiotinylated in the second)
T4 construct: also called biotinylated IL-18/IL18-BP complex; not shown: human IgG1 Fc tag
T4 sequence 1: T1 sequence
T4 sequence 2: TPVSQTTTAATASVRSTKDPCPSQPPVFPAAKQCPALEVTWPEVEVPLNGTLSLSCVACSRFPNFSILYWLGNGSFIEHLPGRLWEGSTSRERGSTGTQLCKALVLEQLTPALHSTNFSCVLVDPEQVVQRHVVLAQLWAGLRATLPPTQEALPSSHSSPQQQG

B1: MOR10501 (antibody, human IgG1, lambda, L234A L235A, V domains shown)
VH: EVQLQESGPGLVKPGETLSLTCTVSGGSISTGSYYWNWIRQAPGKGLEWIGEIWHSGPTFYNPSLKSRVTISVDTSKNQFSLKLSSVTAADTAVYYCARTTRYWMSHILAYGMDYWGQGTLVTVSS
VL: DIVLTQPPSVSGAPGQRVTISCSGSSSNIGNHYVSWYQQLPGTAPKLLIYANTKRPSGVPDRFSGSKSGTSASLAITGLQSEDEADYYCSSYDGSQSIVFGGGTKLTVLG
notes: also called MOR010501
B2: MOR10502 (antibody, human IgG1, lambda, L234A L235A, V domains shown)
VH: B1 VH with W54H, H55G, S56H, P58F
VL: B1 VL
notes: also called MOR010502
B3: MOR10497 (antibody, human IgG1, lambda, L234A L235A, V domains shown)
VH: B1 VH with W54Q, H55S, S56P, P58Y
VL: B1 VL
notes: also called MOR010497
B4: MOR09465 (antibody, human IgG1, lambda, L234A L235A, V domains shown)
VH: EVQLVQSGAEVKKPGSSVKVSCKASGGTFNSYAISWVRQAPGQGLEWMGNIIPHYGFAYYAQKFQGRVTITADESTSTAYMELSSLRSEDTAVYYCARAAYHPLVFDNWGQGTLVTVSS
VL: DIVLTQPPSVSGAPGQRVTISCSGSSSNIGNHYVNWYQQLPGTAPKLLIYRNNHRPSGVPDRFSGSKSGTSASLAITGLQSEDEADYYCQSWDYSGFSTVFGGGTKLTVLG
notes: also called MOR9465
B5: MOR09441 (antibody, human IgG1, lambda, L234A L235A, V domains shown)
VH: EVQLVQSGAEVKKPGSSVKVSCKASGGTFNSYAISWVRQAPGQGLEWMGWINPFYIGETFYAQKFQGRVTITADESTSTAYMELSSLRSEDTAVYYCARAAYHPLVFDNWGQGTLVTVSS
VL: B4 VL
notes: also called MOR9441
B6: MOR09464 (antibody, human IgG1, lambda, L234A L235A, V domains shown)
VH: B4 VH with H54M, Y55T, F57Q, A58T
VL: B4 VL
notes: also called MOR9464
B7: MOR10222_E1Q_N30S_M54I (antibody, human IgG1, lambda, L234A L235A, V domains shown)
VH: B4 VH with E1Q, N30S, H54I, Y55T, F57Q, A58T
VL: B4 VL with D1Q, I2S, V10A, A13T, T77S
B8: MOR09466 (antibody, human IgG1, lambda, L234A L235A, V domains shown)
VH: B4 VH with H54Y, Y55S
VL: B4 VL
notes: also called MOR9466
B9: MOR13363 (antibody, human IgG1, kappa, L234A L235A, V domains shown)
VH: QVQLLESGGGLVQPGGSLRLSCAASGFTFSSYAIHWVRQAPGKGLEWVSVISGEGSNTYYADSVKGRFTISRDNSKNTLYLQMNSLRAEDTAVYYCARVMIGYGFDYWGQGTLVTVSS
VL: DIQMTQSPSSLSASVGDRVTITCRASQSIFNYLNWYQQKPGKAPKLLIYDSSTLQSGVPSRFSGSGSGTDFTLTISSLQPEDFATYYCLQYSGFLFTFGQGTKVEIKR
B10: MOR13341 (antibody, human IgG1, kappa, L234A L235A, V domains shown)
VH: QVQLVQSGAEVKKPGSSVKVSCKASGGTFSTFSISWVRQAPGQGLEWMGGIIPIFGTANYAQKFQGRVTITADESTSTAYMELSSLRSEDTAVYYCARGGYGGYYYFDYWGQGTLVTVSS
VL: B9 VL with F30S, Y32R, D50K, S51G, L89Q, Y91H, S92K, G93V, F94W, F96T
B11: MOR13361 (antibody, human IgG1, kappa, L234A L235A, V domains shown)
VH: B9 VH with V50T, S52Q, G53S, E54S, S56E, T58K, Y59F
VL: B9 VL with L89H, F94L
B12: MOR9464_N30L (antibody, human IgG1, lambda, L234A L235A, V domains shown)
VH: B4 VH with N30L, H54M, Y55T, F57Q, A58T
VL: B4 VL

Molecular target: T1, Recombinant human IL-18
Experiment: cell-based or functional assay

Binder	IC50, inhibition of IFN-γ release, KG-1 cells, Hu IL-18 (1 nM) [nM]	IC50, inhibition of IFN-γ release, PBMC, Hu IL-18 (recombinant) [nM]	IC50, inhibition of IFN-γ release, KG-1 cells, Hu IL-18 (0.5 nM) [nM]
B1	0.3	6.3	
B2	0.4	6.3	
B3	0.3	5.8	
B4	0.3	0.6	
B5	0.6	2.5	
B6	0.8	1.3	
B7	4.21		
B8	0.4	1.2	
B9			0.49
B10			0.13
B11			0.41

Molecular target: T2, Recombinant cynomolgus IL-18
Experiment: cell-based or functional assay

Binder	IC50, inhibition of IFN-γ release, KG-1 cells, Cyno IL-18 [nM]	IC50, inhibition of IFN-γ release, KG-1 cells, Cyno IL-18 (0.2 nM) [nM]
B1	0.2	
B2	0.2	
B3	0.3	
B4	1.8	
B5	16.4	
B6	8.3	
B7	8.12	
B8	5.6	
B9		0.28
B10		2.8
B11		0.13

Molecular target: T3, Native human IL-18
Experiment: cell-based or functional assay

Binder	IC50, inhibition of IFN-γ release, PBMC, Native IL-18 (LPS/IL-12) [nM]
B1	1.3
B2	2.3
B3	1.8
B4	0.89
B5	0.45
B6	0.2
B7	0.05
B8	2.1
B9	0.18
B10	0.8
B11	0.5

Molecular target: T1, Recombinant human IL-18
Experiment: cell-based or functional assay
Remark: another data set of the same source

Binder	IC50, inhibition of IFN-γ release, KG-1 cells, Hu IL-18 (1 nM) [nM]
B12	0.23
B7	4.2

Molecular target: T3, Native human IL-18
Experiment: cell-based or functional assay
Remark: another data set of the same source

Binder	IC50, inhibition of IFN-γ release, PBMC, Native IL-18 (LPS/IL-12) [nM]
B12	0.05
B7	0.05

Molecular target: T1, Recombinant human IL-18
Experiment: cell-based or functional assay
Remark: another data set of the same source

Binder	IC50, inhibition of IFN-γ release, human whole blood, recombinant human IL-18 (7 nM) [nM]
B1	20.3
B2	17.9
B3	16.1
B4	4.2
B5	8
B12	9.85
B6	3.6
B7	47.3
B8	5.6
B9	29.4
B10	5.6
B11	15.7

Molecular target: T3, Native human IL-18
Experiment: cell-based or functional assay
Remark: another data set of the same source

Binder	IC50, inhibition of IFN-γ release, human whole blood, LPS/IL-12 (native IL-18) [nM]
B1	101
B2	110
B3	108
B4	19.4
B5	16.3
B12	15.5
B6	9.8
B7	9.3
B8	18.5
B9	91.7
B10	19.6
B11	39.4

Molecular target: T2, Recombinant cynomolgus IL-18
Experiment: solution equilibrium titration (SET), ECL detection; value in brackets = cynomolgus IL-18; bracketed value
Protocol: (§1) Goat-anti-human (Fab)₂ fragment specific antibodies (Dianova) were labeled with MSD SULFO-TAG™ NHS-Ester (Meso Scale Discovery, Gaithersburg, Md., USA) according to the manufacturer's instructions. Experiments were carried out in polypropylene microtiter plates and phosphate-based assay buffer. Unlabeled human IL-18 was serially diluted, starting with a concentration at least 10 times higher than the expected KD. Wells without antigen were used to determine Bₘₐₓ values; wells with assay buffer were used to determine background. After addition of a constant amount of antibodies or fragment thereof (e.g. 10 pM final concentration in 60 μl final volume), the mixture was incubated over night at RT.
(§2) Streptavidin MSD plates were blocked with BSA-containing phosphate buffer over night. After blocking of the plate, biotinylated human IL-18 was added and incubated for 1 h at RT. Subsequently the equilibrated samples were transferred to those plates and incubated for a short time at RT. After washing, MSD SULFO-TAG labeled detection antibody (goat anti-human (Fab)₂) was added to the MSD plate and incubated for a short time at RT.
(§3) Where IL-18 from cynomolgus monkey (cm IL-18) was also tested, the resulting KD are indicated in brackets.

Binder	Kd [nM]
B7	0.03
B9	0.01
B10	0.03
B11	0.006

Molecular target: T4, IL-18/IL-18BP complex
Experiment: ELISA, second set-up: unbiotinylated human IL-18/rhIL-18BP-Fc complex captured on Maxisorp plate through the Fc tag by goat anti-human IgG Fc, antibody titrated, AttoPhos fluorescence [B]
Protocol: Plates were washed 5× with TBST, 20 μl AttoPhos (Roche) solution (1:5 diluted in ddH2O) were added and fluorescence was measured at the Tecan Reader.
In a second setup, the experiment was done in a similar way, except for using unbiotinylated hu IL-18.

Binder	binding result
B4	no binding (tested: about 400 nM)
B5	no binding (tested: about 400 nM)
B6	no binding (tested: about 400 nM)
B8	no binding (tested: about 400 nM)

Molecular target: T1, Recombinant human IL-18
Experiment: solution equilibrium titration (SET), ECL detection; human IL-18; unbracketed value, column Hu IL-18
Protocol: as §1, §2, §3

Binder	Kd [nM]
B7	0.003
B9	0.01
B10	0.003
B11	0.007

Molecular target: T2, Recombinant cynomolgus IL-18
Experiment: cell-based or functional assay
Remark: another data set of the same source

Binder	IC50, inhibition of IFN-γ production, cynomolgus whole blood, recombinant cynomolgus IL-18 (7 nM) [nM]
B4	55
B5	110
B6	51
B8	179

Molecular target: T1, Recombinant human IL-18
Experiment: solution equilibrium titration (SET), ECL detection
Protocol: as §1, §2, §3

Binder	Kd [nM]
B1	0.001
B2	0.004
B3	0.002
B4	0.006
B5	0.001
B6	0.003
B8	0.005
